Assay results published in PMC8855348.

T1: RAD51AP1 WT (UniProt Q96B01 1-352)
T1 sequence: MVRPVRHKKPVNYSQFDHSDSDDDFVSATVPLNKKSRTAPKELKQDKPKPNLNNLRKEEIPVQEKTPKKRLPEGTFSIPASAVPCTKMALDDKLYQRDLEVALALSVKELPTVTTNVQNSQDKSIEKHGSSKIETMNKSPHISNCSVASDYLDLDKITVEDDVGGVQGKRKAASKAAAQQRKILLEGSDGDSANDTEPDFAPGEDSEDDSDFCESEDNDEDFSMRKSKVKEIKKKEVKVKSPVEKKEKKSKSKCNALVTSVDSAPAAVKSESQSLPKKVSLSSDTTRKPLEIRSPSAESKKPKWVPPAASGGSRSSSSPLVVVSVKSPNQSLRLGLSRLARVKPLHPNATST

B1: 50-nt DNA-RNA hybrid (DNA:RNA)
DNA: ATCATCACCATAACGTCGATGTATCAACTTCGATTAGTCACACCAATTAA
RNA: UUAAUUGGUGUGACUAAUCGAAGUUGAUACAUCGACGUUAUGGUGAUGAU
B2: 63-nt ssRNA (ssRNA)
RNA: AACUUGGUCUGACAGUUACCAAUGCUUAAUCAGUGAGGCACCUAUCUCAGCGAUCUGUCUAUU

Target: T1, RAD51AP1 WT
Test: EMSA

Binder | binding result
B1 | binds
B2 | binds
